Test results reported in the supplement of paper PMC11865577.

Key:
Experiment in all cases: pull-down binding Z-score (relative to library population); higher = stronger binding
[1] = test system: G-clamp-N3 (biotin conjugate); conditions: RNA library: Library-1 (pre-miRNA loops + repeats)
Method in brief: (§1)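 Streptavidin beads with 100 pmol of biotin-conjugated small molecule were incubated for 60 min at 25 °C with 1 μg of heat-folded Cy5- or Cy3-end-labelled RNA library in phosphate/NaCl/KCl buffer. Bound RNA was eluted in hot SDS after three washes and hybridised to a DNA barcode microarray at 55.5 °C for 20 h. Each binding score is a library-referenced Z-score, computed after beads-only subtraction and a trimmed mean of barcoded replicate probes.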

[2] = test system: TO-3-N3 (biotin conjugate); conditions: RNA library: Library-2
Method in brief: as §1

[3] = test system: TO-3-N3-2 (biotin conjugate); conditions: RNA library: Library-2
Method in brief: as §1

[4] = test system: TO-N3 (biotin conjugate); conditions: RNA library: Library-2
Method in brief: as §1

[5] = test system: TO-N3-2 (biotin conjugate); conditions: RNA library: Library-2
Method in brief: as §1

| Sequence | pull-down binding Z-score [1] | pull-down binding Z-score [2] | pull-down binding Z-score [3] | pull-down binding Z-score [4] | pull-down binding Z-score [5] |
| --- | --- | --- | --- | --- | --- |
| GGAUGGGAGACCUGACCCAUCC [hsa-mir-5195] | 0.74 | -0.0606 | -0.208 | -0.0467 | -0.332 |
| GUGGACAGAGGCAAAACUCUAACUUC [hsa-mir-6078] | -1.45 | -0.31 | -0.41 | 0.0919 | 0.491 |
| GGCGCGCGAGGCUCCAGGCUCC [hsa-mir-3197] | 2.56 | 0.322 | 0.248 | 0.81 | 1.92 |
| GGGCAGAAAUAGAUGGCCU [hsa-mir-4270] | 2.97 | 1 | 0.429 | 1 | 1.07 |
| UGUUUCUUUAAUGAGGACGAAACA [hsa-mir-329-1] | 1.67 | 0.65 | 0.302 | 0.46 | -0.326 |
| UAGGUGGUCGAAGUCAUCCACA [hsa-mir-7153] | -0.765 | -0.108 | 0.264 | 0.131 | 0.498 |
| CCCAGCCUUGGCGUUCAGGUGCUGAG [hsa-mir-3150b] | -0.3 | -0.0824 | -0.23 | -0.022 | 0.723 |
| GGGAGGUAAGAAGUCUCUGACUCCU [hsa-mir-5193] | 0.481 | -0.307 | -0.261 | -0.44 | -0.358 |
| GCUGGGCUGAGCUAACCAGGGCUGGGCUGAGC [hsa-mir-4537] | 0.991 | 0.138 | -0.0332 | 0.532 | 1.42 |
| ACAUGAAAAUAAAAUGUAAAUUAUUUUAUUUCUAUCA [hsa-mir-3671] | -0.346 | 0.665 | 0.294 | 0.652 | -0.163 |
| UGGCGACACUCGCGCCAGCUCCCGGGACGGCUGGGCUCGGGCUGGUCGCCGA [hsa-mir-7845] | 3.14 | 0.0309 | -0.167 | 0.341 | 1.38 |
| CCCAUAUGAACAUACAAUGCUAUGGA [hsa-mir-1-2] | -0.76 | -0.62 | -0.224 | -0.569 | -0.206 |
| GGGAGCAUGAACAAUGUUUCUCACUCCC [hsa-mir-3162] | 1.01 | 0.186 | -0.49 | 0.299 | 1.13 |
| UAAUAGCAAUCCUUAAAUGCCAUUA [hsa-mir-4477b] | -0.537 | -0.947 | -0.0844 | -1.24 | -1.16 |
| AUCGGUCGAGAGCGUCCUGGCUGAU [hsa-mir-3178] | 0.173 | 0.18 | -0.22 | 0.526 | 1 |
| CAAGUUAUCACUGAGCGACUUC [hsa-mir-4664] | -1.2 | -0.47 | -0.235 | -0.349 | -0.296 |
| UGGUGGAGAUGGAGAGCCCUGAGCCUCCA [hsa-mir-6777] | 0.173 | 0.164 | -0.0154 | 0.727 | 1.17 |
| GUUUGGGUGCGGUUGGGAGUCUCUAAU [hsa-mir-200c] | 0.194 | 1.66 | 1.39 | 1.67 | 1.41 |
| CAAGUCCGUCUUCCUGAGAGGUUUG [hsa-mir-133b] | -0.401 | -0.412 | -0.284 | -0.0806 | 0.836 |
